Test results published in patent US20180371065A1.

Experiments:
[1] = biological target: human α-synuclein, full length, wild type (human) (UniProt P37840); assay: direct ELISA, 100 ng/ml coating of full length α-synuclein
[2] = biological target: human α-synuclein, full length, wild type (human) (UniProt P37840); assay: direct ELISA, 20 µg/ml coating of full length α-synuclein

EC50 [1]: 0.099 nM
EC50 [2]: 0.335 nM
Substance: antibody Syn211 (Sigma)
